Reference: the supplement of paper PMC12042874
± gives the uncertainty stated by the source.

Assay: amyloid nucleation score (Sup35N fusion, yeast selection) (log enrichment); library NNK1; higher = more nucleation; inactive = no reads after selection
Procedure, shortened: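 Three technical output replicates were used for random libraries. Psi-negative yeast expressing peptides of 20 random codons fused to Sup35N were induced with 100 μM copper sulfate for 24 hours and grown 7 days at 30°C on medium lacking adenine and uracil, and input and output plasmid inserts were Illumina-sequenced, excluding sequences with under 100 input reads. The nucleation score is the DiMSum log enrichment of output over input reads, centred on the mode score of non-aggregating sequences.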

For FWAHMMRIASNYKFSLYL, the amyloid nucleation score was “inactive”.
In the case of FYSALLGQTRYSRSSRSSTE, the amyloid nucleation score is reported as “inactive”.
For GCALPQYKILWSFRFYWVGN, the amyloid nucleation score was “inactive”.
In the case of GCDCDQVLKYHARCMYVKDE, the amyloid nucleation score is reported as “inactive”.
For GHLSA, the amyloid nucleation score was “inactive”.
For GKVFVCSIVYSIRMSITSRI, the amyloid nucleation score was “inactive”.
With GLCVMSYTVDSLLCKGIFR the amyloid nucleation score was “inactive”.

FWDVVKLNGGSGMALFYAGL and FWGWLRPWLLKSSEDPLKLE are within error of each other in amyloid nucleation score: 0.145 ± 1 for the first, -0.617 ± 0.57 for the second.

Going from FWHGSCSLDNDFHS to FWPCFSWYC, the amyloid nucleation score rises from -0.442 ± 0.51 to 2.16 ± 0.15.

Compared with FWVKVLY, FYAVVFYYDTDSAARCRFC is higher in amyloid nucleation score: -0.654 ± 0.37 for the first, 6.32 ± 0.075 for the second.

Going from FYCLSNKFFYIVCRNALQSS to FYDLFNVNIGLGDFKSVCFL, the amyloid nucleation score rises from -0.324 ± 0.35 to 2.66 ± 0.2.

FYGIARNVLRVGESMARYT and FYIMTLGYCSWFSVGKRLSP are within error of each other in amyloid nucleation score: -0.059 ± 1.2 for the first, -0.551 ± 0.43 for the second.

FYLHRAIWPSYHVSRLVRHR and FYLVATCVAFFRLHWFACN are within error of each other in amyloid nucleation score: -0.979 ± 2.7 for the first, -0.218 ± 0.36 for the second.

FYRNTGFMW and FYSFTGGAVGLGLC are within error of each other in amyloid nucleation score: -1.42 ± 2.7 for the first, 1.11 ± 0.49 for the second.

FYWHHWTNLAIIVEYILGEW and GACGGKFRVYGKGLILWVRS are within error of each other in amyloid nucleation score: 0.571 ± 1.2 for the first, 0.253 ± 0.37 for the second.

GAFCWRLVGEGLFVALDVCE and GAGLYCR are within error of each other in amyloid nucleation score: 0.458 ± 0.87 for the first, 0.376 ± 0.52 for the second.

First: GAGRNSWRCCNLLFSEDMIG
Second: GARQHATVAREAATLCF
The amyloid nucleation score of the first is higher: 2.79 ± 0.088 for the first, 0.094 ± 1.4 for the second.

GASWNCAQYRMMD and GATVNSVWSVPKQVTWSGMC are within error of each other in amyloid nucleation score: -0.338 ± 1.7 for the first, -0.138 ± 0.32 for the second.

GAVDSYLQRLFGLFRWDTLK and GAYCFSVCNHREL are within error of each other in amyloid nucleation score: -0.375 ± 0.64 for the first, -0.365 ± 1.1 for the second.

Going from GCCSVFQNCCSSRVYIFVPI to GCDGATVAGGTNYPDQMYSF, the amyloid nucleation score falls from 4.87 ± 0.082 to 0.786 ± 0.74.

GCFIVR and GCGGTGAFTVQGKRQFIAGR are within error of each other in amyloid nucleation score: -0.768 ± 0.98 for the first, -0.031 ± 0.27 for the second.

First: GCIGAQRLNCLWSTRRYLVY
Second: GCLRTWQITLVEYNCMTLRI
The amyloid nucleation score of the first is higher: 5.42 ± 0.06 for the first, 0.215 ± 1.2 for the second.

Going from GCTLLESCVYGKSVRSYHQW to GDLKSILVVLFSSLCVPTLR, the amyloid nucleation score rises from 0.253 ± 0.52 to 1.26 ± 0.21.

GDNMDEEARWRLPVRFDRAS and GEFAYSMVQGHYRIMLMSLK are within error of each other in amyloid nucleation score: -0.013 ± 1.2 for the first, 1.49 ± 0.68 for the second.

Going from GEIITWLSGIPLDTVCILRM to GELLKMNVQIRYMGIWVNIL, the amyloid nucleation score rises from -0.229 ± 0.25 to 3.46 ± 0.18.

GERTCSYIYGLFTIFYTGLR and GEYCKSLSTE are within error of each other in amyloid nucleation score: -0.048 ± 1.3 for the first, 1.01 ± 0.93 for the second.

Compared with GFCFNECFLAGV, GFCNYMSFCFHIDASE is higher in amyloid nucleation score: -0.285 ± 0.59 for the first, 7.587 ± 0.056 for the second.

GFDKMMCWYYGLTVIVMDGS and GFEWVRVYWWGSYVGKRMGT are within error of each other in amyloid nucleation score: -0.076 ± 0.25 for the first, -0.219 ± 0.91 for the second.

GFFVQNRTWQIH and GFGGSGLTWGSRVCGV are within error of each other in amyloid nucleation score: -0.858 ± 0.45 for the first, -1.5 ± 2.4 for the second.

GFGQAGGPSGESY and GFIKPILEQGRYHNESRVLL are within error of each other in amyloid nucleation score: 0.722 ± 0.75 for the first, 0.243 ± 0.58 for the second.

GFKPWVVCWTWQAAPKVRSP and GFLTVNYWHSEV are within error of each other in amyloid nucleation score: 0.702 ± 0.73 for the first, 0.065 ± 0.21 for the second.

GFMERLASIYTFFWGVDSK and GFNLFCATESYYFFSLMVMG are within error of each other in amyloid nucleation score: -0.339 ± 1.2 for the first, -0.13 ± 0.25 for the second.

GFPTPEPEDNVARSVRWIYS and GFPVVAEHVVEFKLV are within error of each other in amyloid nucleation score: -1.47 ± 1 for the first, 0.093 ± 0.7 for the second.

GFSSVPEGDSINPR and GFTGARVSTQHRLRGN are within error of each other in amyloid nucleation score: -0.09 ± 0.54 for the first, -0.245 ± 0.84 for the second.

GFWSRSGSYQLICIYFGGYG and GFYRAERYSRFMRAVGRLSN are within error of each other in amyloid nucleation score: -0.296 ± 0.4 for the first, -0.771 ± 0.76 for the second.

GFYVAETRKVRLCMARWYCG and GGELKARNKREGNQSSA are within error of each other in amyloid nucleation score: 0.368 ± 0.47 for the first, 0.058 ± 0.72 for the second.

GGFFYMWRYRLCRLGKFGAP and GGHYAVQNPMRVYAYGH are within error of each other in amyloid nucleation score: -0.76 ± 0.6 for the first, -0.667 ± 1 for the second.

GGKESLFRCFADRSCFMYI and GGLKQFTGSRTHGLWSNGQM are within error of each other in amyloid nucleation score: -0.724 ± 2.4 for the first, -0.337 ± 0.89 for the second.

GGLQKMVPNSNLCFLEDP and GGLSNSLSTAVQDW are within error of each other in amyloid nucleation score: -0.713 ± 1.7 for the first, -0.995 ± 0.61 for the second.

GGLVRSKFYFTL and GGPDTMEMGSFGDARATDAG are within error of each other in amyloid nucleation score: 0.19 ± 0.25 for the first, 1.03 ± 0.93 for the second.

First: GGRNF
Second: GGSFKGYSLIV
The amyloid nucleation score of the first is lower: -0.696 ± 0.57 for the first, 0.678 ± 0.66 for the second.

First: GGTGMVGRDANTSFIFWDIV
Second: GGTSIPVVGNQGMIGYVPCD
The amyloid nucleation score of the first is lower: -0.099 ± 0.36 for the first, 0.825 ± 0.43 for the second.

GGVVCRVKGKNRFPLVSWQF and GGWFIINRHHLCYSRNLPPE are within error of each other in amyloid nucleation score: -0.565 ± 0.61 for the first, 0.271 ± 0.69 for the second.

GGYGLYCDHRYVTTTWWHSS and GHAEIYMWTLGIPSRLFGAI are within error of each other in amyloid nucleation score: 0.926 ± 0.66 for the first, 0.049 ± 0.45 for the second.

First: GHGWITMVTDCR
Second: GHIHFWASRDLPTKCHILGL
The amyloid nucleation score of the first is higher: 1.87 ± 0.4 for the first, -0.181 ± 0.67 for the second.

GHLNQCGLNL and GHNLRLWCCNEADHFFRAQR are within error of each other in amyloid nucleation score: -0.136 ± 0.38 for the first, -1.16 ± 1.9 for the second.

Going from GHYKGECYSLMNPV to GICLKMYYVSACWESNVDTI, the amyloid nucleation score rises from -0.067 ± 1.2 to 1.88 ± 0.18.

GIGHELFSNWVMEQLA and GIKAIKCDEPSCAVLGLNSS are within error of each other in amyloid nucleation score: -0.23 ± 0.35 for the first, -0.536 ± 0.5 for the second.

Compared with GIMSRDGKICMVSV, GIRKKVPIVVCNIFQFECKR is higher in amyloid nucleation score: -0.091 ± 0.81 for the first, 2.51 ± 0.1 for the second.

Going from GISFP to GIYGQWTQ, the amyloid nucleation score rises from -0.737 ± 0.31 to 0.697 ± 0.85.

GKIRSKKGQSLGQNT and GKQGRIQDSVYDWCCCNLSG are within error of each other in amyloid nucleation score: -1.16 ± 1.2 for the first, 0.255 ± 1.2 for the second.

GKRDRMLQQIGWKLTYRCWN and GKSILVVSFARKLF are within error of each other in amyloid nucleation score: 0.522 ± 0.66 for the first, -0.18 ± 1.2 for the second.

GKSKAAQFN and GKSWLSMKNQISINRRSMIP are within error of each other in amyloid nucleation score: -0.318 ± 0.31 for the first, -0.449 ± 0.5 for the second.

GKVAPFRDSGNIIADGNIHE and GKWPRRSW are within error of each other in amyloid nucleation score: -0.219 ± 0.47 for the first, 0.376 ± 1.1 for the second.

First: GLCFDARLLEL
Second: GLDLMSVRWGKTMAPSSLWW
The amyloid nucleation score of the first is lower: -1.87 ± 2.7 for the first, 4.63 ± 0.12 for the second.

Going from GLDRTHYPFALNGCLLSTVS to GLELLAGVIHSWVRGSGALW, the amyloid nucleation score falls from 0.676 ± 0.55 to -0.868 ± 0.84.

Going from GLEWGGVKTQMKSWTMRMGG to GLGCSSLCQLMN, the amyloid nucleation score rises from -1.4 ± 1.6 to 0.983 ± 0.56.

First: GLGLHWSEASFRLRMDRRFA
Second: GLGMSRPYGSAPTRPDQNKI
The amyloid nucleation score of the first is higher: 3.79 ± 0.069 for the first, 0.275 ± 1.1 for the second.

Compared with GLGRSLKGHIMTAMRCMQGV, GLILNNLSWAHWPPGGSMWL is higher in amyloid nucleation score: -0.691 ± 0.44 for the first, 2.72 ± 0.17 for the second.

GLKNFWM and GLLIVGRRYLGGADVDIHEE are within error of each other in amyloid nucleation score: -1.55 ± 1.9 for the first, 0.713 ± 0.68 for the second.

Compared with GLNLRCSNTREGKVWNRTW, GLNYLNFTREYYHLTWVVVP is higher in amyloid nucleation score: -0.37 ± 0.47 for the first, 4.47 ± 0.091 for the second.

GLRCFCTFHCMWFVLNSSN and GLRYFKLLLSEGSR are within error of each other in amyloid nucleation score: 0.025 ± 0.34 for the first, -0.209 ± 1 for the second.

First: GLRYSVYNCFLVCRGRREWP
Second: GLSAEYFHFPVKRAVSMTLV
The amyloid nucleation score of the first is higher: 5.54 ± 0.057 for the first, -0.049 ± 0.6 for the second.

GLSGYSRVFMTADDVGVRVW and GMRIGC are within error of each other in amyloid nucleation score: -1.18 ± 1.5 for the first, 0.023 ± 0.95 for the second.

GMSDRQWYMTRTYCLSGPAV and GMVSIL are within error of each other in amyloid nucleation score: 0.134 ± 0.23 for the first, -0.278 ± 1.2 for the second.

GNCPNT and GNFMNRCAFRRMGYSTISIN are within error of each other in amyloid nucleation score: 0.367 ± 0.75 for the first, 1.35 ± 0.47 for the second.

In the case of GNFMRLRWNVKFL, the amyloid nucleation score is reported as -0.016 ± 0.72.
